Data set [1] addresses T1, beta-arrestin2 peptide HKRNSVRLVIR (SEQ ID NO:191) (not fully specified).
T1 chain: HKRNSVRLVIR

Data set [2] concerns the target T2, CLK2 peptide RRRRSRTFSRS (SEQ ID NO:178) (not fully specified).
T2 chain: RRRRSRTFSRS

Data set [3] deals with T3, NPAT peptide FRASSRSTTK (SEQ ID NO:184) (not fully specified).
T3 chain: FRASSRSTTK

The target in data set [4] is T4, Lyp peptide ILRPSKSVKLRS (SEQ ID NO:197) (not fully specified).
T4 chain: ILRPSKSVKLRS

The target of data set [5] is T5, CXCR4 peptide VSRGSSLKILSK (SEQ ID NO:212) (not fully specified).
T5 chain: VSRGSSLKILSK

The target in data set [6] is T6, prostaglandin E receptor 4 peptide DFRRRRSFRRIA (SEQ ID NO:186) (not fully specified).
T6 chain: DFRRRRSFRRIA

Data set [7] concerns the target T7, supervillin peptide VMKRKFSLRAAE (SEQ ID NO:202) (not fully specified).
T7 chain: VMKRKFSLRAAE

The target in data set [8] is T8, BTK peptide ERGRRGSKKGSI (SEQ ID NO:188) (not fully specified).
T8 chain: ERGRRGSKKGSI

The target of data set [9] is T9, peptide EEAEHKATKARLADK (SEQ ID NO:75) (not fully specified).
T9 chain: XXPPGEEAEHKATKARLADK

The target of data set [10] is T10, serine/threonine-protein kinase PRP4 peptide TKKRSKSRSKER (SEQ ID NO:215) (not fully specified).
T10 chain: TKKRSKSRSKER

The target in data set [11] is T11, IDN3 peptide VRRRRSQRISQR (SEQ ID NO:172) (not fully specified).
T11 chain: VRRRRSQRISQR

B1: PKC-theta (protein)
chain: MSPFLRIGLSNFDCGSCQSCQGEAVNPYCAVLVKEYVESENGQMYIQKKPTMYPPWDSTFDAHINKGRVMQIIVKGKNVDLISETTVELYSLAERCRKNNGKTEIWLELKPQGRMLMNARYFLEMSDTKDMNEFETEGFFALHQRRGAIKQAKVHHVKCHEFTATFFPQPTFCSVCHEFVWGLNKQGYQCRQCNAAIHKKCIDKVIAKCTGSAINSRETMFHKERFKIDMPHRFKVYNYKSPTFCEHCGTLLWGLARQGLKCDACGMNVHHRCQTKVANLCGINQKLMAEALAMIESTQQARCLRDTEQIFREGPVEIGLPCSIKNEARPPCLPTPGKREPQGISWESPLDEVDKMCHLPEPELNKERPSLQIKLKIEDFILHKMLGKGSFGKVFLAEFKKTNQFFAIKALKKDVVLMDDDVECTMVEKRVLSLAWEHPFLTHMFCTFQTKENLFFVMEYLNGGDLMYHIQSCHKFDLSRATFYAAEIILGLQFLHSKGIVYRDLKLDNILLDKDGHIKIADFGMCKENMLGDAKTNTFCGTPDYIAPEILLGQKYNHSVDWWSFGVLLYEMLIGQSPFHGQDEEELFHSIRMDNPFYPRWLEKEAKDLLVKLFVREPEKRLGVRGDIRQHPLFREINWEELERKEIDPPFRPKVKSPFDCSNFDKEFLNEKPRLSFADRALINSMDQNMFRNFSFMNPGMERLIS
On to B1, for which the in vitro phosphorylation (% of best substrate) worked out at 38 in [1]; 65 in data set [2]; 54 in [3]; 32 in data set [4]; 13 in data set [5]; 50 in data set [6]. Also, the in vitro phosphorylation (% of best substrate) is 24 in data set [7], 44 in data set [8], 12 in [10] and 86 in data set [11]. Also, the Peptide phosphorylation by PKC-theta in [9] worked out at 0.

The values above are taken from patent US20050064507.
